Results on one substance are retold here after paper PMC9891525.

The target of this assay is SARS-CoV-2 Delta variant S1 protein (SARS-CoV-2). The assay is described as follows: SPR. On the technique in general: Surface plasmon resonance follows binding to a sensor surface in real time, without labels.

As for original monoclonal antibody REGN10987, the Kd (commonly a measure of binding affinity in units of concentration) worked out at 0.9 nM.
